Data reported in patent US6951919 (MOCHIDA PHARMACEUTICAL, dated 2005).

Experiments:
Test in all cases: cell-based or functional assay
[1] = molecular target: T1, Fas on mouse W4 cells (mouse WR19L cell transformants that overexpress Fas) (UniProt P25446 22-327, limits assumed)
T1 sequence (looked up): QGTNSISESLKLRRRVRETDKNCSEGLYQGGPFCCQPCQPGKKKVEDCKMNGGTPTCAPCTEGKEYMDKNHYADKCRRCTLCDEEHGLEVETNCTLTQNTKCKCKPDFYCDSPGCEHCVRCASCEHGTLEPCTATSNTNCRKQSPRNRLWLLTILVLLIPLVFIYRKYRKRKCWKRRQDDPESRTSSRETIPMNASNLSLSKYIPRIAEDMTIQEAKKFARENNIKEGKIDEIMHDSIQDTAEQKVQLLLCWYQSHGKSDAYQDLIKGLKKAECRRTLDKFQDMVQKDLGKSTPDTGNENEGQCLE

[2] = molecular target: T2, Fas expressed endogenously on human Jurkat cells (human, UniProt P25445 26-335)
T2 sequence (looked up): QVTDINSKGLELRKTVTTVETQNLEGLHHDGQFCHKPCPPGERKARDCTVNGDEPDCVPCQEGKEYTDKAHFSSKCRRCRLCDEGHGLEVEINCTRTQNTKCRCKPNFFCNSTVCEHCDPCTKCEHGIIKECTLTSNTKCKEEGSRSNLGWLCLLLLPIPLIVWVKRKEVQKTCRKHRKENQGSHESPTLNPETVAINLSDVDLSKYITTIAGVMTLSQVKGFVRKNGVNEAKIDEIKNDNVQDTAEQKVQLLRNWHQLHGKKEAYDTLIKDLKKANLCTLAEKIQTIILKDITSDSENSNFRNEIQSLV

[3] = molecular target: Fas expressed endogenously on mouse primary hepatocytes (mouse), P25446

B1: D4 deletion mutant of human FasL (amino acids 8-69 and 111-133 deleted) (ligand)
chain: MQQPFNYPLKKRGNHSTGLCLLVMFFMVLVALVGLGLGMFQLFHLQKEPSPPPEKKELRKVAHLTGKSNSRSMPLEWEDTYGIVLLSGVKYKKGGLVINETGLYFVYSKVYFRGQSCNNLPLSHKVYMRNSKYPQDLVMMEGKMMSYCTTGQMWARSSYLGAVFNLTSADHLYVNVSELSLVNFEESQTFFGLYKL
- specific killing of W4 cells at an E/T ratio of 5.0, 51Cr-release [1]: ~50%
- specific killing of Jurkat cells at an E/T ratio of 3.0, 51Cr-release [2]: ≥ 20%

B2: human soluble Fas ligand, P48023 130-281 (ligand)
chain: QIGHPSPPPEKKELRKVAHLTGKSNSRSMPLEWEDTYGIVLLSGVKYKKGGLVINETGLYFVYSKVYFRGQSCNNLPLSHKVYMRNSKYPQDLVMMEGKMMSYCTTGQMWARSSYLGAVFNLTSADHLYVNVSELSLVNFEESQTFFGLYKL
- concentration of soluble FasL that blocks half of the cytotoxic activity of membrane-bound FasL (D4 mutant) on mouse hepatocytes at E/T 2.0, GOT release [3]: 0.4 µg/mL
